Experimental data: the supplement of paper PMC9112550, “Optimization of the antimicrobial peptide Bac7 by deep mutational scanning” (BMC Biology, 2022)

Tested on: Escherichia coli TOP10
Assay: shrunken log2 fold change of peptide-encoding DNA abundance (4.5 h post-induction vs induction); higher = less antimicrobial activity (less host growth inhibition)
Conditions: time post-induction: 4.5 h; library: site-saturation at positions 5, 18, 19, 20
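Note: peptides expressed intracellularly from a pBAD plasmid library in pooled LB shake-flask culture, induced with 0.3% L-arabinose, DNA abundance read by NGS, three biological replicates, DESeq2 with apeglm shrinkage.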

Sequence	shrunken log2 fold change
RRIRARPPRLPRPRPRPKFKPRP	-0.0259
RRIRIRPPRLPRPRPRPCSAPRP	-0.392
RRIRRRPPRLPRPRPRPFYDPRP	-0.193
RRIRPRPPRLPRPRPRPCTCPRP	-0.049
RRIRVRPPRLPRPRPRPAIVPRP	-0.149
RRIRKRPPRLPRPRPRPHVMPRP	0.0754
RRIRMRPPRLPRPRPRPRPQPRP	1.13
RRIRYRPPRLPRPRPRPKDTPRP	-0.392
RRIRDRPPRLPRPRPRPQFPPRP	0.0234
RRIRGRPPRLPRPRPRPQMDPRP	0.291
RRIRQRPPRLPRPRPRPPWCPRP	0.0207
RRIRPRPPRLPRPRPRPHHCPRP	-0.257
RRIRFRPPRLPRPRPRPVKMPRP	-0.0692
RRIRRRPPRLPRPRPRPNTLPRP	-0.283
RRIRSRPPRLPRPRPRPDYMPRP	-0.355
RRIRTRPPRLPRPRPRPYCAPRP	-0.732
RRIRIRPPRLPRPRPRPGSEPRP	-0.187
RRIRVRPPRLPRPRPRPNPEPRP	-0.286
RRIRDRPPRLPRPRPRPTSHPRP	-0.146
RRIRIRPPRLPRPRPRPLYTPRP	-0.723
RRIRWRPPRLPRPRPRPFPVPRP	-0.0948
RRIRCRPPRLPRPRPRPYYSPRP	-0.437
RRIRRRPPRLPRPRPRPWDPPRP	-0.119
RRIRLRPPRLPRPRPRPLRCPRP	-0.0152
RRIRGRPPRLPRPRPRPLLFPRP	0.873

Sequence	shrunken log2 fold change
RRIRGRPPRLPRPRPRPTRTPRP	1.32
RRIRMRPPRLPRPRPRPFNSPRP	-0.326
RRIRQRPPRLPRPRPRPFDLPRP	-0.318
RRIRVRPPRLPRPRPRPWTGPRP	-0.0167
RRIRHRPPRLPRPRPRPWYTPRP	-0.17
RRIRCRPPRLPRPRPRPWACPRP	-0.0929
RRIRSRPPRLPRPRPRPWYGPRP	-0.933
RRIRHRPPRLPRPRPRPLVMPRP	-0.0133
RRIRARPPRLPRPRPRPGNYPRP	0.208
RRIRARPPRLPRPRPRPSWDPRP	0.244
RRIRQRPPRLPRPRPRPALIPRP	0.144
RRIRKRPPRLPRPRPRPKMDPRP	0.158
RRIRCRPPRLPRPRPRPAMCPRP	-0.144
RRIRLRPPRLPRPRPRPCLIPRP	-0.0321
RRIRMRPPRLPRPRPRPSWQPRP	0.305
RRIRCRPPRLPRPRPRPQIAPRP	-0.0699
RRIRARPPRLPRPRPRPINEPRP	-0.0644
RRIRDRPPRLPRPRPRPLRWPRP	0.274
RRIRKRPPRLPRPRPRPSWMPRP	0.93
RRIRGRPPRLPRPRPRPMVQPRP	0.0883
RRIRHRPPRLPRPRPRPMCAPRP	-0.446
RRIRGRPPRLPRPRPRPEWGPRP	0.544
RRIRKRPPRLPRPRPRPEHRPRP	-0.0428
RRIRIRPPRLPRPRPRPVKLPRP	-0.0316
RRIRWRPPRLPRPRPRPMYYPRP	-0.32

Sequence	shrunken log2 fold change
RRIRWRPPRLPRPRPRPWHAPRP	0.0362
RRIRYRPPRLPRPRPRPFMAPRP	-0.773
RRIRERPPRLPRPRPRPWYRPRP	-0.217
RRIRYRPPRLPRPRPRPCTCPRP	0.0744
RRIRPRPPRLPRPRPRPEFIPRP	-0.117
RRIRWRPPRLPRPRPRPQNRPRP	0.0839
RRIRDRPPRLPRPRPRPVHSPRP	-0.243
RRIRLRPPRLPRPRPRPSHPPRP	-0.516
RRIRGRPPRLPRPRPRPEGGPRP	1.17
RRIRGRPPRLPRPRPRPNCVPRP	0.543
RRIRCRPPRLPRPRPRPYSNPRP	-0.655
RRIRNRPPRLPRPRPRPIIAPRP	-0.127
RRIRIRPPRLPRPRPRPMVEPRP	3.19
RRIRHRPPRLPRPRPRPAESPRP	-0.218
RRIRIRPPRLPRPRPRPFKVPRP	-0.0829
RRIRPRPPRLPRPRPRPIHFPRP	-0.241
RRIRARPPRLPRPRPRPHVEPRP	0.147
RRIRFRPPRLPRPRPRPDGLPRP	0.00785
RRIRFRPPRLPRPRPRPNWGPRP	0.0529
RRIRVRPPRLPRPRPRPEITPRP	-0.159
RRIRTRPPRLPRPRPRPVYFPRP	-0.558
RRIRHRPPRLPRPRPRPYPSPRP	-0.457
RRIRYRPPRLPRPRPRPKFKPRP	-0.319
RRIRRRPPRLPRPRPRPLICPRP	0.119
RRIRKRPPRLPRPRPRPAFLPRP	0.245

Sequence	shrunken log2 fold change
RRIRPRPPRLPRPRPRPWVWPRP	0.267
RRIRDRPPRLPRPRPRPINFPRP	-0.0167
RRIRCRPPRLPRPRPRPSPDPRP	0.215
RRIRPRPPRLPRPRPRPNKKPRP	-0.238
RRIRYRPPRLPRPRPRPRQVPRP	-0.206
RRIRERPPRLPRPRPRPCYWPRP	-0.361
RRIRFRPPRLPRPRPRPWLNPRP	-0.189
RRIRIRPPRLPRPRPRPQCKPRP	-0.532
RRIRPRPPRLPRPRPRPDENPRP	-0.0444
RRIRVRPPRLPRPRPRPRKIPRP	-0.0978
RRIRIRPPRLPRPRPRPQWVPRP	-0.023
RRIRIRPPRLPRPRPRPPVLPRP	0.328
RRIRERPPRLPRPRPRPNPEPRP	-0.0358
RRIRLRPPRLPRPRPRPICYPRP	-0.284
RRIRPRPPRLPRPRPRPNDNPRP	-0.533
RRIRRRPPRLPRPRPRPWQRPRP	0.188
RRIRPRPPRLPRPRPRPWINPRP	-0.719
RRIRARPPRLPRPRPRPKTEPRP	0.38
RRIRTRPPRLPRPRPRPDDNPRP	-0.195
RRIRGRPPRLPRPRPRPELYPRP	1.14
RRIRKRPPRLPRPRPRPRIWPRP	0.434
RRIRKRPPRLPRPRPRPLNPPRP	0.129
RRIRERPPRLPRPRPRPKMSPRP	0.148
RRIRPRPPRLPRPRPRPSILPRP	-0.0331
RRIRARPPRLPRPRPRPAYHPRP	-0.0226

Sequence	shrunken log2 fold change
RRIRARPPRLPRPRPRPEDYPRP	-0.0332
RRIRDRPPRLPRPRPRPPNRPRP	0.789
RRIRCRPPRLPRPRPRPRPFPRP	0.176
RRIRRRPPRLPRPRPRPRVNPRP	0.398
RRIRIRPPRLPRPRPRPFDWPRP	0.305
RRIRKRPPRLPRPRPRPALMPRP	0.32
RRIRYRPPRLPRPRPRPDSCPRP	0.0675
RRIRFRPPRLPRPRPRPNYEPRP	-0.774
RRIRMRPPRLPRPRPRPCKPPRP	-0.173
RRIRKRPPRLPRPRPRPEVKPRP	0.085
RRIRQRPPRLPRPRPRPKIMPRP	-0.668
RRIRQRPPRLPRPRPRPHEQPRP	0.0505
RRIRYRPPRLPRPRPRPDSLPRP	-0.142
RRIRNRPPRLPRPRPRPFPGPRP	-0.00992
RRIRIRPPRLPRPRPRPFAAPRP	-0.258
RRIRGRPPRLPRPRPRPDRQPRP	-0.11
RRIRARPPRLPRPRPRPEPIPRP	0.716
RRIRKRPPRLPRPRPRPQFLPRP	0.0482
RRIRLRPPRLPRPRPRPPYQPRP	-0.0294
RRIRMRPPRLPRPRPRPLLPPRP	0.354
RRIRPRPPRLPRPRPRPSPFPRP	-0.0752
RRIRARPPRLPRPRPRPTNWPRP	0.835
RRIRARPPRLPRPRPRPRTIPRP	0.148
RRIRWRPPRLPRPRPRPAFAPRP	1.23
RRIRARPPRLPRPRPRPGCHPRP	0.265
